Laboratory results taken from patent US12258605B2, “Alkane oxidation by modified hydroxylases” (The California Institute of Technology, priority 2005, dated 2025).

Legend:
Format in all cases: biochemical
[1] = Kinetic measurements (Michaelis-Menten): propane; details: N.a. = not active
Experimental: (§1) Rate measurements. Initial rates of product formation were determined at 25° C. in 100 mM KPi pH 8.0 buffer using purified protein (100 nM) and a substrate concentration of 1.6 mM. In a 5 mL-vial, 20 μL of alkane solution (in ethanol) were dissolved in 400 μL KPi buffer, to which 500 μL enzyme solution at 100-200 nM was added. Reaction was initiated by adding 100 μL of 5 mM NADPH solution, followed by stirring at 300 rpm for 1 minute, and quenched by adding 200 μL chloroform and stirring at 800 rpm for 10 sec. Solutions were transferred to an Eppendorf tube, to which internal standard (10 μL 25 mM 1-bromohexane in ethanol) was added. Tubes were vortexed for 10 sec and centrifuged for 30 sec at 10,000 g. Organic phase was removed and analyzed by GC. For propane, reactions were carried out in a 5 mL-scale using 100-400 nM purified enzyme, propane-saturated buffer (propane concentration≈1.6 mM) and a final NADPH concentration of 500 μM. Reactions were stopped by addition of 200 μL H2SO4 conc. and analyzed by derivatization to alkyl nitrites followed by GC-ECD analysis as described below.
Kinetic measurements. […] Reactions were carried out in a 5 mL-scale using 100-400 nM purified enzyme and a final NADPH concentration of 1 mM. After 30 seconds, reactions were stopped by addition of 200 μL H2SO4 conc. and analyzed by GC as described below. Propane leakage during the experiment was neglected in reason of short measuring time. All measurements were performed in triplicate. Kinetic parameters were estimated from least-squares nonlinear regression to the Michaelis-Menten equation,
[formula] where v is the initial velocity, S is the substrate concentration, Vmax is the maximum velocity, and Km is the apparent Michaelis constant for the substrate.
Products from alkane reactions were identified and quantified by gas chromatography using authentic standards and calibration curves with internal standards. For the reactions with alkanes from pentane to decane, GC analyses were carried out using a Shimadzu GC-17A gas chromatograph, Agilent HP5 column (30 m×0.32 mm×0.1 μm film), 1 μL injection, FID detector, and the following separation program: 250° C. inlet, 250° C. detector, 50° C. oven for 3 min, 5° C./min gradient to 100° C., 25° C./min gradient to 230° C., and 230° C. for 3 min. For butane and propane (TTN) reactions, GC analyses were carried out using a Hewlett-Packard 5890 Series II Plus gas chromatograph, Supelco SPB-1 column (60 m×0.52 mm×0.5 μm film), 0.5 μL injection, FID detector, and the following separation program: 250° C. inlet, 275° C. detector, 80° C. oven for 2 min, 10° C./min gradient to 110° C., 25° C./min gradient to 275° C., and 275° C. for 2.5 min. […] Organic solutions were analyzed by FID-GC.

[2] = Kinetic constants for n-alkanes: pentane; details: N.a. = not active
Experimental: as §1
(§2) Products from alkane reactions were identified and quantified by gas chromatography using authentic standards and calibration curves with internal standards. For the reactions with alkanes from pentane to decane, GC analyses were carried out using a Shimadzu GC-17A gas chromatograph, Agilent HP5 column (30 m×0.32 mm×0.1 μm film), 1 μL injection, FID detector, and the following separation program: 250° C. inlet, 250° C. detector, 50° C. oven for 3 min, 5° C./min gradient to 100° C., 25° C./min gradient to 230° C., and 230° C. for 3 min. For butane and propane (TTN) reactions, GC analyses were carried out using a Hewlett-Packard 5890 Series II Plus gas chromatograph, Supelco SPB-1 column (60 m×0.52 mm×0.5 μm film), 0.5 μL injection, FID detector, and the following separation program: 250° C. inlet, 275° C. detector, 80° C. oven for 2 min, 10° C./min gradient to 110° C., 25° C./min gradient to 275° C., and 275° C. for 2.5 min. For ethane and propane (rate) reactions, analysis of reaction mixtures was carried out by derivatization to alkyl nitrites followed by GC-ECD analysis. For laurate, reaction product analysis was carried out by derivatization with N-methyl-N-trimethylsilylheptafluorobutyramide followed by extraction with hexane. Organic solutions were analyzed by FID-GC.
(§3) To further investigate the evolution of substrate specificity, kinetic constants for the C5 to C8 alkanes were determined from Michaelis-Menten plots (Table 19). The preference of 35E11 and its evolutionary predecessors for medium-chain alkanes is indicated by their high C8/C5 specificities ((kcat/Km)8/(kcat/Km)5˜100), where Km appears to be the major contributing factor. […]

[3] = Kinetic constants for n-alkanes: hexane; details: N.a. = not active
Experimental: as §1, §2, §3

[4] = Propane hydroxylation (rate, total turnover, products)
Experimental: Cell lysates for high throughput screening were prepared as described previously (Peters et al., J. Am. Chem. Soc. 125:13442 (2003); incorporated by reference herein). High-throughput dimethyl ether (DME) screens were performed in 96 well plates as described previously. Improved mutants were selected based on an increased signal compared to 9-10A (for the saturation mutagenesis libraries) and 1-12G (for the recombination library). Reactions on octane and propane were analyzed by gas chromatography as described.
Rates of ethanol formation were measured over 30 min using gas chromatography (GC) coupled to an electron capture detector (ECD) and are reported as nmol ethanol/min/nmol enzyme. Errors are at most 10%. Total turnover number (ttn) was measured using GC after completion of the reaction and is reported as nmol product/nmol protein. Errors are at most 10%. Initial rates of propanol and octanol formation were measured over 1 min by GC and are reported as nmol product/min/nmol protein. Errors are at most 15%. The “ee” of 2-octanol (main product) was measured by GC; the favored enantiomer is listed in parenthesis. Wild-type P450 BM-3 primarily produces 3- and 4-octanol. The yields were not sufficient for the determination of ee for wt BM-3. Mutant 9-10A contains amino acid substitutions R47C, V78A K94I, P142S, T175I, A184V, F205C, S226R, H236Q, E252G, R255S, A290V, and L353V.
In Table 5 the product distribution is determined as ratio of a specific alcohol product to the total amount of all alcohol products (given in %). The product distribution for ketones was similar to alcohol product distribution. The numbers reported here are the (%) total of all ketones relative to total products (alcohols+ketones). The favored enantiomer is listed in parentheses.
For the data shown in Table 6 the initial NADPH consumption rates were measured over 15 seconds at 340 nm as nmol NADPH/min/nmol protein. Octane reactions contained 100 nM P450, 166 uM NADPH, and 4 mM octane in 1% ethanol and potassium phosphate buffer. […] Errors are at most 10%. Initial rates were measured by GC over 1 minute as nmol total products/min/nmol protein. Octane reactions contained 100 nM P450, 500 uM NADPH, and 4 mM octane in 1% ethanol and potassium phosphate buffer. Propane reactions contained 1 uM P450, 500 uM NADPH, and propane-saturated potassium phosphate buffer. Coupling was determined by ratio of product formation rate to NADPH consumption rate. Total turnover numbers were determined as nmol product/nmol enzyme. Octane reactions contained 10-25 nM P450, 500 uM NADPH, and 4 mM octane in 1% ethanol and potassium phosphate buffer. Propane reactions contained 10-25 nM protein, potassium phosphate buffer saturated with propane, and an NADPH regeneration system containing 100 uM NADP+, 2 U/mL isocitrate dehydrogenase, and 10 mM isocitrate.

B1: P450PMO: P450 BM-3 variant, SEQ ID NO:125; 7-7 plus G443A and D698G; propane monooxygenase (protein)
chain: TIKEMPQPKTFGELKNLPLLNTDKPVQALMKIADELGEIFKFEAPGCVTRYISSQRLIKEACDESRFDKNLSQELKFFRDFGGDGLFTSWTHEINWKKAHNILLPSFSQQAMKGYHAMMVDIAVQLVQKWERLNADEHIEVSEDMTRLTLDTIGLCGFNYRFNSFYRDQPHPFIISMVRALDEVMNKPQRANPDDPAYDENKRQCQEDIKVMNDLVDKIIADRKARGEQSDDLLTQMLNGKDPETGEPLDDGNISYQIITFLIAGHETTSGLLSFALYFLVKNPHVLQKVVEEAARVLVDPVPSYKQVKQLKYVGMVLNEALRLWPTFPAFSLYAKEDTVLGGEYPLEKGDEVMVLIPQLHRDKTVWGDDVEEFRPERFENPSAIPQHAFKPFGNGQRACIGQQFALHEATLVLGMMLKHFDFEDHTNYELDIKETLTLKPEAFVVKAKSKKIPLGGIPSPSTGQSAKKVRKKAENAHNTPLLVLYGSNMGTAEGTARDLADIAMSKGFAPQVATLDSHAGNLPREGAVLIVTASYNGHPPDNAKQFVDWLDQASADEVKGVRYSVFGCGDKNWATTYQKVPAFIDETLAAKGAENIADRGEADASDDFEGTYEEWREHMWSDVAAYFNLDIENSEDNKSTLSLQFVDSAADMPLAKMHGAFSTNVVASKELQQPGSARSTRHLEIELPKEASYQEGGHLGVIPRNYEGTVNRVTARFGLDASQQIRLEAEEEKLAHLPLAKTVSVEELLQYVELQDPVTRTQLRAMAAKTVCPPHKVELEALLEKQAYKEQVLAKRLTMLELLEKYPACEMKFSEFIALLPSIRPRYYSISSSPRVDEKQASITVSVVSGEAWSGYGEYKGIASNYLAELQEGDTITCFISTPQSEFTLPKDPETPLIMVGPGTGVAPFRGFVQARKQLKEQGQSLGEAHLYFGCRSPHEDYLYQEELENAQSEGIITLHTAFSRMPNQPKTYVQHVMEQDGKKLIELLDQGAHFYICGDGSQMAPAVEATLMKSYADVHQVSEADARLWLQQLEEKGRYAKDVWAG
modifications: Mutant P450PMO protein sequence
notes: 7-7 plus G443A and D698G; propane monooxygenase
Km [1]: 170 µM
kcat [1]: 3.08 ± 0.583 s⁻¹
Km [2]: 835 ± 117 µM
kcat [2]: 2.5 ± 0.233 s⁻¹
Km [3]: 430 ± 91 µM
kcat [3]: 1.42 ± 0.283 s⁻¹

B2: Wild-type BM-3: wild-type cytochrome P450 BM-3 from Bacillus megaterium, SEQ ID NO:1 (protein, listed as Bacillus megaterium)
chain: TIKEMPQPKTFGELKNLPLLNTDKPVQALMKIADELGEIFKFEAPGRVTRYLSSQRLIKEACDESRFDKNLSQALKFVRDFAGDGLFTSWTHEKNWKKAHNILLPSFSQQAMKGYHAMMVDIAVQLVQKWERLNADEHIEVPEDMTRLTLDTIGLCGFNYRFNSFYRDQPHPFITSMVRALDEAMNKLQRANPDDPAYDENKRQFQEDIKVMNDLVDKIIADRKASGEQSDDLLTHMLNGKDPETGEPLDDENIRYQIITFLIAGHETTSGLLSFALYFLVKNPHVLQKAAEEAARVLVDPVPSYKQVKQLKYVGMVLNEALRLWPTAPAFSLYAKEDTVLGGEYPLEKGDELMVLIPQLHRDKTIWGDDVEEFRPERFENPSAIPQHAFKPFGNGQRACIGQQFALHEATLVLGMMLKHFDFEDHTNYELDIKETLTLKPEGFVVKAKSKKIPLGGIPSPSTEQSAKKVRKKAENAHNTPLLVLYGSNMGTAEGTARDLADIAMSKGFAPQVATLDSHAGNLPREGAVLIVTASYNGHPPDNAKQFVDWLDQASADEVKGVRYSVFGCGDKNWATTYQKVPAFIDETLAAKGAENIADRGEADASDDFEGTYEEWREHMWSDVAAYFNLDIENSEDNKSTLSLQFVDSAADMPLAKMHGAFSTNVVASKELQQPGSARSTRHLEIELPKEASYQEGDHLGVIPRNYEGIVNRVTARFGLDASQQIRLEAEEEKLAHLPLAKTVSVEELLQYVELQDPVTRTQLRAMAAKTVCPPHKVELEALLEKQAYKEQVLAKRLTMLELLEKYPACEMKFSEFIALLPSIRPRYYSISSSPRVDEKQASITVSVVSGEAWSGYGEYKGIASNYLAELQEGDTITCFISTPQSEFTLPKDPETPLIMVGPGTGVAPFRGFVQARKQLKEQGQSLGEAHLYFGCRSPHEDYLYQEELENAQSEGIITLHTAFSRMPNQPKTYVQHVMEQDGKKLIELLDQGAHFYICGDGSQMAPAVEATLMKSYADVHQVSEADARLWLQQLEEKGRYAKDVWAG
activity on propane ([4]; listed as P450BM3): no measurable activity
activity on propane ([4]; listed as wild-type P450BM3): no detectable propane activity
activity on propane ([4]; listed as wildtype cytochrome P450 BM-3): inactive
